In patent US20060115876A1:
Values belong to the substance of their own block, whether it stands above or below them.

Assays:
[1] = target: von Willebrand factor (vWF) (UniProt P04275); assay: vWF binding ELISA divided by total antigen ELISA, relative to BDD
[2] = target: von Willebrand factor (vWF) (UniProt P04275); assay: vWF binding ELISA divided by total antigen ELISA
[3] = target: von Willebrand factor (vWF) (UniProt P04275); assay: vWF binding ELISA, FVIII bound to vWf in severe hemophilic plasma
[4] = target: von Willebrand factor (vWF) (UniProt P04275); assay: vWF binding ELISA divided by total antigen ELISA, relative to starting KG-2
[5] = target: von Willebrand factor (vWF) (UniProt P04275); assay: vWF binding ELISA value divided by total antigen ELISA value
[6] = target: von Willebrand factor (vWF) (UniProt P04275); assay: vWF binding ELISA (FVIII bound to vWf in severe hemophilic plasma, captured on anti-vWf mAb) divided by total antigen ELISA, relative to BDD

Sequence of B domain deleted FVIII (BDD) (P00451 other isoform, or with tags, fused parts or gaps limits assumed): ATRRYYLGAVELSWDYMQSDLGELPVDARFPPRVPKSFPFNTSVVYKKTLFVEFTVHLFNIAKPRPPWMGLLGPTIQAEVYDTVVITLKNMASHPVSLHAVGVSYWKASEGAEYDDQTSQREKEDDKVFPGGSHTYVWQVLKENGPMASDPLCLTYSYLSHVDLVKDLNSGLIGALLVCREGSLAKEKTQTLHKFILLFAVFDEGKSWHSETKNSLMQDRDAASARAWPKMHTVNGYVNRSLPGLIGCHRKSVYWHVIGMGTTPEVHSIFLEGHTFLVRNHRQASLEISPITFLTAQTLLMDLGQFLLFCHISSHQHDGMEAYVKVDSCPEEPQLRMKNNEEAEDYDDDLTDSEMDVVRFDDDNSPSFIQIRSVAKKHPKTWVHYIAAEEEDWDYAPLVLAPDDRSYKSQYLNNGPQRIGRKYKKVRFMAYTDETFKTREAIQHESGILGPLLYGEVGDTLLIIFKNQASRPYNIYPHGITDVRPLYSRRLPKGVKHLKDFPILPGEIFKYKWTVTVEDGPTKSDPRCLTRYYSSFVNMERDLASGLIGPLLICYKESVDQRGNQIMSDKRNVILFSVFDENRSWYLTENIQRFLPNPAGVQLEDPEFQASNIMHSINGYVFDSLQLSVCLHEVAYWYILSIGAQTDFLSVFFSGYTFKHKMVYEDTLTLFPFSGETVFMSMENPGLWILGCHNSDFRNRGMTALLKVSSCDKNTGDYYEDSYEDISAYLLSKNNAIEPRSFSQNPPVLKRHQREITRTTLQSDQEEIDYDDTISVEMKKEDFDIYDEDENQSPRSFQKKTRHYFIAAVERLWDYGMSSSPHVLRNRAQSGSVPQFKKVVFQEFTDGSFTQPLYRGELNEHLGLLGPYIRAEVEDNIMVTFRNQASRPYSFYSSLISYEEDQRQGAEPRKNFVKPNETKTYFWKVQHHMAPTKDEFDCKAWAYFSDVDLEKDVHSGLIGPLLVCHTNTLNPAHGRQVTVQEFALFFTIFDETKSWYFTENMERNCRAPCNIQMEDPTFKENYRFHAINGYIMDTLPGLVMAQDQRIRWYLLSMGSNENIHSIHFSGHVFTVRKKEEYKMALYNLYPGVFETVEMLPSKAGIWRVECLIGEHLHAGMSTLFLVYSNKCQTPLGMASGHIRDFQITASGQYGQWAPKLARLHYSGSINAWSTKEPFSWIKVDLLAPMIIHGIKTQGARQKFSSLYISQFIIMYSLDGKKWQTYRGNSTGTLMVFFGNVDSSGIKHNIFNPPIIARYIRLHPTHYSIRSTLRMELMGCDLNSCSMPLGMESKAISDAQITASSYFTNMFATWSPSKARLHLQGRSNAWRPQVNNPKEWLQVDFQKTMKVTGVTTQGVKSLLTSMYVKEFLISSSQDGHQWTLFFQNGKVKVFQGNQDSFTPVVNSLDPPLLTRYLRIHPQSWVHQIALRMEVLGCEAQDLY
Sequence of PEG2 red (PEG2 mutein treated with reductant followed by removal of reductant) (P00451 other isoform, or with tags, fused parts or gaps mutant): as the sequence (P00451 other isoform, or with tags, fused parts or gaps limits assumed) above, with L491C counted along it

percent specific activity vWF/TAE relative to BDD [1]: 59%
Substance: PEG2-33 kD PEG (L491C BDD FVIII PEGylated with 33 kD PEG-maleimide) (from UniProt P00451 20-2351)

vWF/TAE (ratio (vWF ELISA ug/mL / TAE ug/mL)) [2]: 0.3 | vWF ELISA (FVIII bound to vWf) [3]: 0.19 µg/mL | % Start (vWF/TAE) [4]: 94%
Substance: KG-2-22 kD PEG (wildtype full length FVIII PEGylated with 22 kD PEG) (from UniProt P00451 20-2351)

vWF/TAE (ratio (vWF ELISA ug/mL / TAE ug/mL)) [2]: 0.32 | vWF ELISA (FVIII bound to vWf) [3]: 0.19 µg/mL | % Start (vWF/TAE) [4]: 100%
Substance: KG-2-30 kD PEG (wildtype full length FVIII PEGylated with 30 kD PEG) (from UniProt P00451 20-2351)

vWF/TAE (specific vWF binding activity) [5]: 1 vWF/TAE | percent specific activity vWF/TAE relative to BDD [6]: 100%
Substance: B domain deleted FVIII (BDD) (from UniProt P00451 20-2351)

percent specific activity vWF/TAE relative to BDD [1]: 100%
Substance: PEG6 mutein (K1808C BDD FVIII) (from UniProt P00451 20-2351)

percent specific activity vWF/TAE relative to BDD [1]: 125%
Substance: PEG2-5 kD PEG (L491C BDD FVIII PEGylated with 5 kD PEG-maleimide) (from UniProt P00451 20-2351)

vWF/TAE (ratio (vWF ELISA ug/mL / TAE ug/mL)) [2]: 0.32 | vWF ELISA (FVIII bound to vWf) [3]: 0.42 µg/mL | % Start (vWF/TAE) [4]: 100%
Substance: wildtype full length FVIII (KG-2) (from UniProt P00451 20-2351)

percent specific activity vWF/TAE relative to BDD [1]: 138%
Substance: PEG2 mutein (L491C BDD FVIII) (from UniProt P00451 20-2351)

percent specific activity vWF/TAE relative to BDD [1]: 98%
Substance: PEG2 red (PEG2 mutein treated with reductant followed by removal of reductant) (from UniProt P00451 20-2351)

percent specific activity vWF/TAE relative to BDD [1]: 90%
Substance: PEG6-33 kD PEG (K1808C BDD FVIII PEGylated with 33 kD PEG-maleimide) (from UniProt P00451 20-2351)

percent specific activity vWF/TAE relative to BDD [1]: 57%
Substance: PEG2-43 kD PEG (L491C BDD FVIII PEGylated with 43 kD PEG-maleimide) (from UniProt P00451 20-2351)

percent specific activity vWF/TAE relative to BDD [1]: 87%
Substance: PEG2-22 kD PEG (L491C BDD FVIII PEGylated with 22 kD PEG-maleimide) (from UniProt P00451 20-2351)

percent specific activity vWF/TAE relative to BDD [1]: 71%
Substance: PEG2-12 kD PEG (L491C BDD FVIII PEGylated with 12 kD PEG-maleimide) (from UniProt P00451 20-2351)
